3 molecules from article PMC10168401 (bioRxiv, 2023) can be followed below.

This test concerns the target SARS-CoV-2 spike receptor-binding domain (RBD), wild type, residues 333-529 (SARS-CoV-2 Wuhan-Hu-1 (wild type), UniProt P0DTC2). The experiment in a line: crystal structure.

B1: CC25.56 Fab with the […] elbow variant (for crystallization) (Fab, V domains shown)
VH: EVQLVQSGAEVKKPGESLKISCKGSGYTFTRHWIGWVRQMPGKGLEWMGVIYPGDSDTRYSPSFQGQVTVSADKSISTAYLQWSSLKASDTAMYFCARGGIAVASGAFDIWGQGTMVTVFN
VL: QSALTQPPSVSVAPGKTARITCGGNNIGSKSVHWYQQKAGQAPVVVIYYPSDRPSGIPERFSGSNSENTATLTISGVEAGDEADYYCQLWDTNSDHWVFGGGTKLTVL
B1: the binding result was “binds”.

B2: CC25.4 Fab with the VSRRLP elbow variant (for crystallization) (Fab, V domains shown)
VH: QVQLVQSGAEVKKPGASVKVSCKASGYTFTDYFLHWVRQAPGQGLEWMGWINPDSGGTNYAQRFQGRVTMTRDTSISTAYMEVSRLRSDDTAVYYCARDNERYQMQNYYHYYGMDVWGQGTTVTVVS
VL: not shown
Take B2: the binding result was “binds”.

B3: CC25.43 Fab with the […] elbow mutation and a shortened kappa FG loop (for crystallization) (Fab, V domains shown)
VH: EVQLVESGGGLVQPGGSLKLSCSASGFTLSDSAMHWVRQASGKGLEWVGRISSNVNNDATVYAASLKGRFTISRDESKNMAYLQMNSLKNEDTAVYYCTVVPVLEYYQYGMDVWGQGTTVTIFN
VL: DIQLTQSPSTLSASVGDRVIITCRASQSISTWLAWYQQRPGQAPKLLIYKASILQSGVPPRFSGSGSGTDFTLTISRLQPDDFATYYCQQYDSDSQPLTFGGGTKLEIK
B3: the binding result is on record as “binds”.
